This passage reports Kd, koff and kon results from US20090292112A1 (published 2009).

The assay concerns the target T1, RG1 polypeptide (native RG1 protein, purified from transfected BHK cells) (human, UniProt Q9BUD6 27-331).
T1 construct: The Biacore assay used BHK-RG1; The Western blots used RG1 from COS, LNCaP and BHK cells and from lysates; also called nRG1; BHK-RG1
T1 chain: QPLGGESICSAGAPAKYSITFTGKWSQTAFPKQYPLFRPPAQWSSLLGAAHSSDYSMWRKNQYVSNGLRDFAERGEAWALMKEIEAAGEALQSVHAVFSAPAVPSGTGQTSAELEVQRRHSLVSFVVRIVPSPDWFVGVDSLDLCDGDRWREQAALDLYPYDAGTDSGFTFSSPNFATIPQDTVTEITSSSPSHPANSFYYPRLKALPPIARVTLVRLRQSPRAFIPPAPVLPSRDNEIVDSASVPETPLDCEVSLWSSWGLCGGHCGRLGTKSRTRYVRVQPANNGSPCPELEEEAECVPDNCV
In words: BIAcore SPR; mab captured on anti-human IgG Fc, soluble BHK-RG1 12.5-400 nM, 1:1 Langmuir fit. The method, then:
Kinetic constants (KD, kₐ and kd) of mab binding to native RG1 protein were determined by BIAcore using a capture format in which soluble, native RG1 protein was bound to immobilized mab on a sensor chip. ImmunoPure rabbit anti-human IgGFc (Pierce, 31142) was covalently immobilized to the Sensor Chip CM5 (Biacore, BR-1000-12) using standard amine coupling methods. 100 ug/ml antibody diluted in 10 mm acetate, pH 4.0 was used at 5 ul/min. HBS-EP (Biacore, BR-1001-88) was used as mobile phase. Unreacted sites were blocked with ethanolamine. Mabs were diluted to 200 nM with HBS and 50 ul was injected per cycle at 10 ul/min. Serial dilutions of BHK-RG1 (12.5-400 nM) were bound to the immobilized mab. Dissociation kinetics were measured immediately after the antigen injection was completed at 20 ul/min for 8 minutes. The surface was regenerated following each cycle using 25 ul of 10 mm glycine, pH 1.8 and then washed with HBS.
Data were fit to a 1:1 Langmuir model using the software provided by the instrument manufacturer (BIAevaluation 3.0), and kinetic constants were calculated.

B1: human RG1 monoclonal antibody B (antibody, V domains shown)
VH: EVQLVQSGGGLVMPGGSLRLSCAGSGFTFSSYVMHWLRQAPGKGLEWVSVIGTGGVTHYADSVKGRFMISRDNAKNSLYLQMNSLRAEDTAMYYCARWGYYGSGSYENDAFDIWGQGTMVTVSS
VL: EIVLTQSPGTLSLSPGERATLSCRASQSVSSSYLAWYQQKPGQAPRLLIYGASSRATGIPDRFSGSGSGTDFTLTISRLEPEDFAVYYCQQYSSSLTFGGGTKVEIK
notes: Hybridomas were screened for human IgG,kappa, and the isotype of this clone is not explicitly stated; also called M ab B
For orientation: Kd means a measure of binding affinity in units of concentration. As a reminder, the koff is the first-order rate constant of dissociation. Read a low koff as slow dissociation. As a reminder, the kon is the rate constant with which the complex forms. A higher kon goes with fast association. For B1, the Kd came out at 8.4 nM, the koff was found to be 0.00023 s⁻¹ and the kon was found to be 29000 M⁻¹ s⁻¹.
